According to patent US9884910B2, “Anti-PDGF-C antibodies” (ThromboGenics NV, priority 2012, dated 2018):

Columns and labels:
[1] = target: T1, 15-mer, overlapping peptides covering the entire human PDGF-C molecule (Homo sapiens, UniProt Q9NRA1); experiment: Epitope mapping ELISA on 15-mer overlapping peptides; assay type: binding; settings: peptide coated 10 μg/mL; antibody 1 μg/mL
T1 construct: host or cells: chemical synthesis
Experimental: The binding of anti-PDGF-C antibodies to 15-mer, overlapping peptides covering the entire human PDGF-C molecule was assessed by ELISA. Antibodies included in this analysis are the five antibodies potently inhibiting activation of PDGF-Rα by PDGF-C, i.e. monoclonal antibodies 2D3, 5A2, 5H7, 16B1 and 29H1. Further included are two antibodies capable of binding to PDGF-C, but not or very poorly inhibiting activation of PDGF-Rα by PDGF-C, i.e. monoclonal antibodies 12E5 (IgG1) and 19F12 (IgG2b) (see Example 4). […] For all antibodies, it was confirmed that they bind to human PDGF-C and binding to full-length human PDGF-C was for all antibodies tested more efficient than binding to any of the peptides identified as described hereafter.
The indicated peptides where synthesized in an N-terminally biotinylated form and coated onto a neutravidin plate (Thermo Scientific, Cat. 15127) at a concentration of 10 μg/mL. The antibodies listed in the table were incubated in each well at a concentration of 1 μg/mL and, following washing, were then detected in a standard ELISA format using an appropriate, HRP-labeled secondary antibody (goat anti-mouse IgG-HRP for all antibodies except sc-80290, and goat anti-rat IgG-HRP for sc-80290). Each antibody was tested at least twice, and up to 4 times. A “+” in the table indicate that a signal to background >3 was found and confirmed at least once. The background signal was measured in the absence of peptide using both the primary and the secondary antibodies. Antibodies sc-80290 and MAB1560 were tested only against peptides 42-63 since this represents the fraction of the protein that was used as an immunogen.

[2] = target: T2, PDGFRα activation by human PDGF-C (Homo sapiens, UniProt Q9NRA1); experiment: PathHunter PDGFRα receptor tyrosine kinase assay in U2OS PDGFRα PLCG1 cells; assay type: cell-based
T2 construct: the growth factor domain of PDGF-C (amino acids 235-345 of human PDGF-C); purchased R&D Systems 1687-CC/CF; host or cells: ligand added to U2OS PDGFRα PLCG1 cells (DiscoveRx, assay 93-0823C3) that express the transfected receptor
T2 sequence (Q9NRA1 235-345): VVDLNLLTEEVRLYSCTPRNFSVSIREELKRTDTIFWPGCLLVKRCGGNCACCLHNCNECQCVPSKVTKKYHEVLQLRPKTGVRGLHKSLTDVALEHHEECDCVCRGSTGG
Description: To evaluate the inhibitory activity of anti-human PDGF-C antibodies on PDGFRα activation by human PDGF-C, the PathHunter® receptor tyrosine kinase assay for PDGFRα (93-0823C3) from DiscoveRx® was used. […] A small complementing fragment of β-gal, the Prolink™ tag (PK) has been fused recombinantly to the intracellular C-terminus of the receptor tyrosine kinase PDGFRα. The larger portion of β-gal, termed EA for enzyme acceptor, is co-expressed with an SH2 (Src Homology 2) phosphotyrosine binding domain. Ligand-induced activation of the receptor results in dimerization and intra-cellular cross-phosphorylation of the receptor. Subsequently, the SH2 domain specifically binds the phosphorylated receptor resulting in the complementation of the two β-gal fragments PK and EA, and formation of a functional β-gal enzyme. Following addition of a β-gal substrate, an easily detectable chemiluminescent signal is produced which is directly correlated to receptor activation. The LumiLITE™ microplate reader is fully compatible with all EFC-based assays of DiscoveRx® and is therefore used.
For the PathHunter® PDGFRα, assay, U2OS PDGFRα, PLCG1 (phospholipase Cγ as the source of the SH2 domain) cells from DiscoveRx® were used. Frozen cells were stored in liquid nitrogen. Upon thawing, cells were resuspended in pre-warmed thawing medium (i.e. culture medium without the selection antibiotics Geneticin and Hygromycin B). After 48 hours of culture in a 5% CO2 incubator at 37° C., thawing medium was replaced by culture medium (MEM Eagle 1× (30-2003 from Invitrogen), 10% fetal bovine serum (SH30071.03 from Perbio Science), 1× Penicillin-Streptomycin-Glutamine (10378-016 from Invitrogen), 250 μg/ml Hygromycin B (10687-010 from Invitrogen), 500 μg/ml Geneticin (10131-035 from Invitrogen)). Once confluence was reached, cells were passaged with a ⅓ dilution every 2-3 days using Accutase (L11-007 from PAA). Cells were maintained in a non-confluent state during routine culture.
In the PathHunter® PDGFRα, assay, the U2OS PDGFRα, PLCG1 cells from DiscoveRx® cultured up to 10 passages were used. Cells were seeded at 20.000 cells in 100 μl per well in 96-well white culture-treated microplates with clear bottom (3610 from Corning). The PathHunter® Cell Plating 16 Reagent (93-0563R16 from DiscoveRx®) was employed as seeding medium. Following 24 hours of culture in 5% CO2 at 37° C., 25 μl of a 5-fold concentrated agonist solution in Cell Plating 16 Reagent was used per well to stimulate the cells. Recombinant human PDGF-C from R&D Systems (1687-CC/CF; Va1235-Gly345) was applied as agonist. After 3 hours incubation at room temperature, 60 μl of PathHunter® detection reagent (93-0001 from DiscoveRx®; 1 part Galacton Star® Substrate, 5 parts Emerald II™ Solution, and 19 parts of PathHunter® Cell Assay Buffer) was added. Cells were placed at room temperature and in the dark for another hour before luminescence was measured with the LumiLITE™ microplate reader. With GraphPad Prism® software, a non-linear regression analysis was performed using the obtained luminescent values in order to generate a sigmoidal agonist dose-response curve with variable slope. The EC50 (i.e. half maximal effective concentration) and EC80 value (i.e. the effective concentration that leads to 80% of the maximal response) for human PDGF-C was calculated.
To evaluate the inhibitory activity of anti-human PDGF-C antibodies on PDGFRα, activation by human PDGF-C, equal volumes of […] concentrated solutions of anti-human PDGF-C antibodies and the EC80 of human PDGF-C, prepared in Cell Plating 16 Reagent, were mixed and the assay was performed as described above. As positive controls, an anti-human PDGF-C polyclonal goat IgG antibody (AF1560 from R&D Systems) and recombinant human PDGFRα, Fc chimera (6765-PR from R&D Systems) were employed. […]

Row | Molecule | binding to peptide No 58 (SEQ ID NO: 96) VLQLRPKTGVRGLHK [1] | inhibition of the PDGFRα activation by human PDGF-C (in words) [2] | IC50 value (nM) ([2]; humanized antibodies, * average of 3 measurements)
1 | 2D3: murine monoclonal anti-PDGF-C antibody, IgG1 κ; VL SEQ ID NO:14, VH SEQ ID NO:18 (antibody, listed as Mus musculus, V domains shown) VH: EVQLVESGGDLVKPGGSLKLSCAASGFTFSNYGMSWVRQTPDKRLEWVATIGSGGSYTYYPDSVKGRFTISRDSAKNTLYLQMSSLKSEDTAMYYCARQAPLWDYSDYWGQGTTLTVSS VL: DVLMTQTPLSLPVSLGDQASISCRSNQTIVHSNGDTYLEWYLQKPGQSPNLLIYKVSNRFSGVPDRFSGSGSGTDFTLKISRVEAEDLGVYYCFQGSHVPPTFGGGTKLEIK | + (A “+” in the table indicate that a signal to background >3 was found and confirmed at least once) |  | 
2 | Humanized mAb 5H7: humanized 5H7; VH SEQ ID NO:102, VL SEQ ID NO:103 (antibody, V domains shown, humanized variable heavy chain murine monoclonal antibody 5H7; humanized variable light chain murine monoclonal antibody 5H7) VH: EVQLLESGGGLVQPGGSLRLSCAASGFTFSSYGMSWVRQTPGKGLEWVATIGYGGSFTYYPDSMKGRFTISRDNAKNTLYLQMNSLRAEDTAVYYCARQAPLWDYFDYWGQGTLLTVSS VL: DVVMTQSPLSLPVTLGQPASISCRSSQTIVHSDGTTYLEWYLQKPGQSPRLLIYKVSNRFSGVPDRFSGSGSGTDFTLKISRVEAEDVGVYYCFQGSHVPPTFGQGTKLEIK |  | apparently not inhibiting activation of PDGFR-α | nad
3 | 5H7: murine monoclonal anti-PDGF-C antibody, IgG1 κ; VL SEQ ID NO:16, VH SEQ ID NO:20 (antibody, listed as Mus musculus, V domains shown) VH: EVQLVESGGDLVKPGGSLKLSCAASGFTFSSYGMSWVRQTPDKRLEWVATIGYGGSFTYYPDSMKGRFTISRDNAKNTLFLQMSSLKSEDTAIYYCVRQAPLWDYFDYWGQGTTLTVSS VL: DVLMTQTPLSLPVSLGDQASISCRSSQTIVHSDGTTYLEWYLQKAGQSPKLLIYKVSNRFSGVPDRFSGSGSGTDFTLKISRVEAEDLGVYYCFQGSHVPPTFGGGTKLEIK | + (A “+” in the table indicate that a signal to background >3 was found and confirmed at least once) |  | 
